{
  "source": "the Human Domainome abundance scans (Beltran et al. 2025)",
  "parents": {"B1": {"name": "Ubiquitin-protein ligase residues 30 to 86; numbered along this chain, Q05086 (parent)", "chain": "KHLIERYYHQLTEGCGNEACTNEFCASCPTFLRMDNNAAAIKALELYKINAKLCDPH"}},
  "note": "± gives the uncertainty stated by the source.",
  "data": [
    {"variants_of": "B1", "test": "abundance fitness (aPCA) (normalised: wild type 0, dead -1); higher = more abundant; growth selection in yeast, the domain comes from the species named", "settings": "Homo sapiens", "values": [
      {"variant": "KHLIERYYHQLTEGCGNEACTNEFCASCPTFIRMDNNAAAIKALELYKINAKLCDPH", "note": "[L32I]", "abundance fitness": "-0.036 ± 0.14"},
      {"variant": "KHLIERYYHQLTEGCGNEACTNEFCASCPTFKRMDNNAAAIKALELYKINAKLCDPH", "note": "[L32K]", "abundance fitness": "0.081 ± 0.13"},
      {"variant": "KHLIERYYHQLTEGCGNEACTNEFCASCPTFPRMDNNAAAIKALELYKINAKLCDPH", "note": "[L32P]", "abundance fitness": "0.148 ± 0.14"},
      {"variant": "KHLIERYYHQLTEGCGNEACTNEFCASCPTFQRMDNNAAAIKALELYKINAKLCDPH", "note": "[L32Q]", "abundance fitness": "0.043 ± 0.13"},
      {"variant": "KHLIERYYHQLTEGCGNEACTNEFCASCPTFGRMDNNAAAIKALELYKINAKLCDPH", "note": "[L32G]", "abundance fitness": "-0.034 ± 0.061"},
      {"variant": "KHLIERYYHQLTEGCGNEACTNEFCASCPTFFRMDNNAAAIKALELYKINAKLCDPH", "note": "[L32F]", "abundance fitness": "-0.239 ± 0.13"},
      {"variant": "KHLIERYYHQLTEGCGNEACTNEFCASCLTFLRMDNNAAAIKALELYKINAKLCDPH", "note": "[P29L]", "abundance fitness": "-0.149 ± 0.11"},
      {"variant": "KHLIERYYHQLTEGCGNEACTNEFCASCYTFLRMDNNAAAIKALELYKINAKLCDPH", "note": "[P29Y]", "abundance fitness": "-0.191 ± 0.22"},
      {"variant": "KHLIERYYHQLTEGCGNEACTNEFCASCNTFLRMDNNAAAIKALELYKINAKLCDPH", "note": "[P29N]", "abundance fitness": "-0.304 ± 0.3"},
      {"variant": "KHLIERYYHQLTEGCGNEACTNEFCASCQTFLRMDNNAAAIKALELYKINAKLCDPH", "note": "[P29Q]", "abundance fitness": "-0.103 ± 0.17"},
      {"variant": "KHLIERYYHQLTEGCGNEACTNEFCASCRTFLRMDNNAAAIKALELYKINAKLCDPH", "note": "[P29R]", "abundance fitness": "-0.061 ± 0.089"},
      {"variant": "KHLIERYYHQLTEGCGNEACTNEFCASCHTFLRMDNNAAAIKALELYKINAKLCDPH", "note": "[P29H]", "abundance fitness": "-0.036 ± 0.29"},
      {"variant": "KHLIERYYHQLTEGCGNEACTNEFCASCSTFLRMDNNAAAIKALELYKINAKLCDPH", "note": "[P29S]", "abundance fitness": "-0.09 ± 0.1"},
      {"variant": "KHLIERYYHQLTEGCGNEACTNEFCASCITFLRMDNNAAAIKALELYKINAKLCDPH", "note": "[P29I]", "abundance fitness": "-0.122 ± 0.15"},
      {"variant": "KHLIERYYHQLTEGCGNEACTNEFCASCWTFLRMDNNAAAIKALELYKINAKLCDPH", "note": "[P29W]", "abundance fitness": "-0.557 ± 0.2"},
      {"variant": "KHLIERYYHQLTEGCGNEACTNEFCASCVTFLRMDNNAAAIKALELYKINAKLCDPH", "note": "[P29V]", "abundance fitness": "-0.156 ± 0.09"},
      {"variant": "KHLIERYYHQLTEGCGNEACTNEFCASCKTFLRMDNNAAAIKALELYKINAKLCDPH", "note": "[P29K]", "abundance fitness": "-0.014 ± 0.14"},
      {"variant": "KHLIERYYHQLTEGCGNEACTNEFCASCGTFLRMDNNAAAIKALELYKINAKLCDPH", "note": "[P29G]", "abundance fitness": "-0.088 ± 0.11"},
      {"variant": "KHLIERYYHQLTEGCGNEACTNEFCASCPTFLRNDNNAAAIKALELYKINAKLCDPH", "note": "[M34N]", "abundance fitness": "-0.279 ± 0.27"},
      {"variant": "KHLIERYYHQLTEGCGNEACTNEFCASCPTFLRTDNNAAAIKALELYKINAKLCDPH", "note": "[M34T]", "abundance fitness": "-0.129 ± 0.096"},
      {"variant": "KHLIERYYHQLTEGCGNEACTNEFCASCPTFLRRDNNAAAIKALELYKINAKLCDPH", "note": "[M34R]", "abundance fitness": "-0.102 ± 0.07"},
      {"variant": "KHLIERYYHQLTEGCGNEACTNEFCASCPTFLRLDNNAAAIKALELYKINAKLCDPH", "note": "[M34L]", "abundance fitness": "-0.002 ± 0.069"},
      {"variant": "KHLIERYYHQLTEGCGNEACTNEFCASCPTFLRHDNNAAAIKALELYKINAKLCDPH", "note": "[M34H]", "abundance fitness": "-0.095 ± 0.13"},
      {"variant": "KHLIERYYHQLTEGCGNEACTNEFCASCPTFLRVDNNAAAIKALELYKINAKLCDPH", "note": "[M34V]", "abundance fitness": "-0.023 ± 0.074"},
      {"variant": "KHLIERYYHQLTEGCGNEACTNEFCASCPTFLRPDNNAAAIKALELYKINAKLCDPH", "note": "[M34P]", "abundance fitness": "-0.042 ± 0.12"},
      {"variant": "KHLIERYYHQLTEGCGNEACTNEFCASCPTFLREDNNAAAIKALELYKINAKLCDPH", "note": "[M34E]", "abundance fitness": "-0.053 ± 0.1"},
      {"variant": "KHLIERYYHQLTEGCGNEACTNEFCASCPTFLRFDNNAAAIKALELYKINAKLCDPH", "note": "[M34F]", "abundance fitness": "-0.061 ± 0.14"},
      {"variant": "KHLIERYYHQLTEGCGNEACTNEFCASCPTFLRADNNAAAIKALELYKINAKLCDPH", "note": "[M34A]", "abundance fitness": "-0.029 ± 0.072"},
      {"variant": "KHLIERYYHQLTEGCGNEACTNEFCASCPTFLRSDNNAAAIKALELYKINAKLCDPH", "note": "[M34S]", "abundance fitness": "-0.042 ± 0.08"},
      {"variant": "KHLIERYYHQLTEGCGNEACTNEFCASCPTFLRGDNNAAAIKALELYKINAKLCDPH", "note": "[M34G]", "abundance fitness": "-0.117 ± 0.084"},
      {"variant": "KHLIERYYHQLTEGCGNEACTNEFCASCPTFLRIDNNAAAIKALELYKINAKLCDPH", "note": "[M34I]", "abundance fitness": "0.054 ± 0.15"},
      {"variant": "KHLIERYYHQLTEGCGNEACTNEFCASCPTFLRQDNNAAAIKALELYKINAKLCDPH", "note": "[M34Q]", "abundance fitness": "-0.074 ± 0.11"},
      {"variant": "KHLIERYYHQLTEGCGNEACTNEFCASCPTFLRKDNNAAAIKALELYKINAKLCDPH", "note": "[M34K]", "abundance fitness": "-0.23 ± 0.11"},
      {"variant": "KHLIERYYHQLTEGCGNEACTNEFCASCPTNLRMDNNAAAIKALELYKINAKLCDPH", "note": "[F31N]", "abundance fitness": "0.027 ± 0.13"},
      {"variant": "KHLIERYYHQLTEGCGNEACTNEFCASCPTHLRMDNNAAAIKALELYKINAKLCDPH", "note": "[F31H]", "abundance fitness": "-0.013 ± 0.16"},
      {"variant": "KHLIERYYHQLTEGCGNEACTNEFCASCPTPLRMDNNAAAIKALELYKINAKLCDPH", "note": "[F31P]", "abundance fitness": "-0.185 ± 0.11"},
      {"variant": "KHLIERYYHQLTEGCGNEACTNEFCASCPTYLRMDNNAAAIKALELYKINAKLCDPH", "note": "[F31Y]", "abundance fitness": "-0.06 ± 0.11"},
      {"variant": "KHLIERYYHQLTEGCGNEACTNEFCASCPTCLRMDNNAAAIKALELYKINAKLCDPH", "note": "[F31C]", "abundance fitness": "-0.043 ± 0.087"},
      {"variant": "KHLIERYYHQLTEGCGNEACTNEFCASCPTVLRMDNNAAAIKALELYKINAKLCDPH", "note": "[F31V]", "abundance fitness": "-0.038 ± 0.068"},
      {"variant": "KHLIERYYHQLTEGCGNEACTNEFCASCPTMLRMDNNAAAIKALELYKINAKLCDPH", "note": "[F31M]", "abundance fitness": "0.057 ± 0.11"},
      {"variant": "KHLIERYYHQLTEGCGNEACTNEFCASCPTILRMDNNAAAIKALELYKINAKLCDPH", "note": "[F31I]", "abundance fitness": "-0.169 ± 0.17"},
      {"variant": "KHLIERYYHQLTEGCGNEACTNEFCASCPTELRMDNNAAAIKALELYKINAKLCDPH", "note": "[F31E]", "abundance fitness": "-0.124 ± 0.083"},
      {"variant": "KHLIERYYHQLTEGCGNEACTNEFCASCPTQLRMDNNAAAIKALELYKINAKLCDPH", "note": "[F31Q]", "abundance fitness": "-0.098 ± 0.12"},
      {"variant": "KHLIERYYHQLTEGCGNEACTNEFCASCPTWLRMDNNAAAIKALELYKINAKLCDPH", "note": "[F31W]", "abundance fitness": "-0.188 ± 0.11"},
      {"variant": "KHLIERYYHQLTEGCGNEACTNEFCASCPTGLRMDNNAAAIKALELYKINAKLCDPH", "note": "[F31G]", "abundance fitness": "-0.025 ± 0.059"},
      {"variant": "KHLIERYYHQLTEGCGNEACTNEFCASCPTRLRMDNNAAAIKALELYKINAKLCDPH", "note": "[F31R]", "abundance fitness": "-0.14 ± 0.07"},
      {"variant": "KHLIERYYHQLTEGCGNEACTNEFCASCPTTLRMDNNAAAIKALELYKINAKLCDPH", "note": "[F31T]", "abundance fitness": "-0.023 ± 0.11"}
    ]}
  ]
}
